These results are taken from US20250129404A1, “RAPID, COLORIMETRIC ASSAY TO DETECT ACETYLTRANSFERASE ACTIVITY IN BIOLOGICAL SAMPLES” (THE FEINSTEIN INSTITUTES FOR MEDICAL RESEARCH, priority 2023, published 2025).

Series [1] concerns the target T1, recombinant human ChAT (rChAT) (Homo sapiens, UniProt P28329).
T1 construct: recombinant human ChAT corresponding to residue 119-748; His tag (N-histidine tag) (N); made in house; host or cells: E. coli BL21-Gold (DE3)
T1 sequence (P28329 119-748): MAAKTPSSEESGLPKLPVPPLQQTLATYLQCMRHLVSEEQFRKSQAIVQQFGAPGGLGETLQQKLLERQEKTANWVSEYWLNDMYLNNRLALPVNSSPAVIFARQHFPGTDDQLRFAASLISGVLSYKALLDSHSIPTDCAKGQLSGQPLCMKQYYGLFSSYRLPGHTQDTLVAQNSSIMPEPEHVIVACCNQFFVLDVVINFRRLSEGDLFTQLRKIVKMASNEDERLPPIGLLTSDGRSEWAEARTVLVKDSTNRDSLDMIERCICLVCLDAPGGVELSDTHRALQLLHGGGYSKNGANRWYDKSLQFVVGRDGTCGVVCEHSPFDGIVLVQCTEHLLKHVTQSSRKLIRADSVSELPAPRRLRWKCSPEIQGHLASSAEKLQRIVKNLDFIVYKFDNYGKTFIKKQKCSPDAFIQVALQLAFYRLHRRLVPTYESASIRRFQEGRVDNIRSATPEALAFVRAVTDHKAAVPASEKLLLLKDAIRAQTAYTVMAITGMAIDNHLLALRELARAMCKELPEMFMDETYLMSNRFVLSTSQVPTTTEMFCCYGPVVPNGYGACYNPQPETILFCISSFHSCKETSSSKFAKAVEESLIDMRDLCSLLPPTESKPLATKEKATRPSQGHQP
Put plainly: Choline acetyltransferase (ChAT) colorimetric activity assay. Format: biochemical. How it is done: Recombinant ChAT protein and ChAT PEGylation. All recombinant ChAT (rChAT) protein used was produced as described previously (10). Briefly, recombinant human ChAT corresponding to residue 119-748 (EC2.3.1.6, UnitProt 28329-3) with a N-histidine tag was expressed in E. coli BL21-Gold (DE3) cells and purified using high affinity Ni-charged columns. The purified recombinant ChAT was dialyzed at 4° C. in buffer containing 0.2×PBS, 10% glycerol and 0.5 mM TCEP (tris(2-carboxyethyl) phosphine), and subjected to extensive Triton X-114 extraction to remove contaminating endotoxins. After purification, PEGylation was carried out using MS (PEG) 12 reagent to extend the plasma half-life of the enzyme (10). Following PEGylation, the protein was dialyzed in buffer and once again extracted with Triton-X-114 to remove contaminating endotoxins. A Bradford protein assay (Bio-Rad) was used to determine rChAT protein concentration. Commercial recombinant ChAT protein was purchased from My BioSource.
Choline Acetyltransferase activity assay. An assay was developed to measure ChAT activity using an adapted version of the colorimetric assay (Reactions 1-3) (13).
Briefly, biological samples and choline chloride standards are diluted in assay buffer (containing 10 mM Tris-HCl, 150 mM NaCl, 1 mM EDTA, and 0.05% Triton X-100). 100 μl of each standard and 40 μl of each sample are added in triplicate to a 96-well plate. […] The assay is developed by addition of 150 μL of 3′3′5′5′ Tetramethylbenzidine (TMB) to all wells, and the plate is immediately analyzed spectrophotometrically at 650 nm. ChAT Activity is determined from the interpolated amount of choline depleted during the reaction, divided by the reaction time and sample volume, and multiplied by the sample dilution factor (Equation 1). In all biological samples, ChAT activity is normalized to total protein concentration, measured using Bradford protein assay (Bio-Rad) and is represented as nmol/min/mg of total protein. […]

Series [2] has as its system DSS-induced experimental colitis in C57Bl/6 male mice. Put plainly: DSS colitis model. Format: in vivo, mouse. The note with it: for histological damage (inflammation severity, crypt damage, extent of inflammation): blinded H&E scoring, day 14 (FIG. 4E-F). On the procedure: DSS Colitis Model. DSS (DSS salt, colitis grade (MW: 36000-50000), MP Biomedicals, CA) was added to the drinking water in a final concentration of 3% (wt/vol) for 7 days. The water was changed to regular water on day 8 and maintained till the end of the experiment. Survival and the disease activity index (DAI) were evaluated daily in a blinded manner. On day 14, mice were euthanized under CO2 asphyxiation and blood and tissue were collected. Colons were removed, cleaned, and sectioned longitudinally. The luminal contents were removed with cold phosphate buffered saline (PBS). Starting from the most distal end (rectum) the colon was rolled with luminal side facing upward, resulting in a “Swiss roll” with the distal end in the center and the proximal colon in the outer side of the roll. The Swiss roll was held together with a small pin and placed in 10% buffered formalin overnight at 4° C. The fixed tissue was then embedded in paraffin, sectioned at 10 μm and stained with hematoxylin and eosin. Histological analysis was carried out in a blinded manner by three independent researchers. The degree of colon inflammation was scored under the light microscope (Zeiss, Germany) using the following criteria: inflammation severity (0—none; 1—mild; 2—moderate; 3—severe), inflammation extent (0—none; 1—mucosal; 2—mucosal and submucosal; 3—transmural), Crypt damage (0—none; 1—basal, ⅓ damaged; 2—basal, ⅔/damaged; 3—crypt loss), damage distribution (0-0%; […]; 3-51-75%; 4-76-100%). Each mouse tissue was scored over 6 different sites of the colon. Serum cytokine levels (IL-6, TNFα and MCP-1) were analyzed using mouse V-Plex Biomarker Group 1 array, and the assay was performed according to the manufacturer's instructions.

Another series concerns TNF. Put plainly: Acute endotoxemia (LPS), TNF by ELISA. The note with it: 1 mg/kg i.p. 30 min prior to 0.3 mg/kg LPS, 90 min after LPS. Format: in vivo, mouse. On the procedure: Endotoxemia. Lipopolysaccharide (LPS, Escherichia coli 0111: B4; Sigma) was sonicated for 30 min, vortexed and administered intraperitoneally (LD50 7 mg/kg). Animals were euthanized by CO2 asphyxiation 90 min post-LPS administration and blood was collected by cardiac puncture using heparinized syringes. Blood samples were kept on ice and centrifuged for 10 minutes at 5000 g. Plasma TNF levels were quantified using a commercially available ELISA (Invitrogen). Plasma total protein concentration was determined using a Bradford Protein Assay (Bio-Rad). Sepsis scores were determined at respective timepoints up to 72 hours following endotoxin administration as described previously (19), where a maximum score of 28 per mouse denotes the greatest clinical sickness score.
Administration of PEG-ChAT and Anti-ChAT Neutralizing Antibody. Pegylated recombinant ChAT protein or a custom made monoclonal anti-ChAT antibody (GenScript) was administered intraperitoneally at a 1 mg/kg dose 30 minutes prior to LPS administration. Acute endotoxemia was induced with a dose of 0.3 mg/kg LPS. Animals were returned to their home cages and euthanized 90 minutes after LPS administration.

A further series relates to hypertensive animals. The settings on record: background statement; cited from earlier work.
Series [3] has as its target T2, recombinant human ChAT (rChAT), substrate choline (Homo sapiens, UniProt P28329).
T2 construct: recombinant human ChAT corresponding to residue 119-748; His tag (N-histidine tag) (N); made in house; host or cells: E. coli BL21-Gold (DE3)
T2 sequence (P28329 119-748): T1 sequence (P28329 119-748)
In words: Michaelis-Menten kinetic constants, Coenzyme A detection assay. It is filed as biochemical. The settings on record: rChAT 2 μg/mL; Michaelis-Menten / Lineweaver Burke (FIG. 7C-D). How it is done:
Determination of Michaelis-Menten kinetic constants. To determine the Km constants for rChAT samples, a previously published Coenzyme A detection assay was used (12). Briefly, Coenzyme A standard was diluted in assay buffer. 100 μl of each standard and 40 μl of each sample was added to the 96-well plate in triplicate. 60 μl of Cocktail A was added to all sample wells. Immediately, 50 μl of Cocktail B was added to all sample and standard wells. The plate was immediately quantitated spectrophotometrically at 324 nm every 30 seconds for 30 minutes. Enzyme velocity was quantified as CoA formed (nmol/min/ml).
Data analysis and statistics. Data were analyzed using Graphpad Prism 9.0 software using two-tailed unpaired […] for comparisons between 2 groups or two-way ANOVA or mixed-effects model followed with Šídák's multiple comparisons test for comparisons of 3 or more groups. Michaelis Menten kinetic constants were determined using the Michaelis-Menten approximation to calculate Km and Vmax from a velocity vs. substrate relationship. Correlation coefficients were calculated using a nonparametric Spearman Correlation. For all analyses, P≤0.05 was considered statistically significant.

Usually IC50 stands for the concentration at which inhibition is half-maximal.

On to `C[N+](C)(C)CCC(=O)c1cccc2ccccc12` [alpha-NETA, reference compound], for which the IC50 in series [1] (preincubation of 0.4 mg/mL rChAT with inhibitor, room temperature 30 minutes (FIG. 7E)) was determined as 148 nM.

B1: PEG-ChAT: recombinant ChAT PEGylated using MS (PEG) 12 reagent (conjugate, UniProt P28329 1-748, looked up)
Choline O-acetyltransferase: MGLRTAKKRGLGGGGKWKREEGGGTRGRREVRPACFLQSGGRGDPGDVGGPAGNPGCSPHPRAATRPPPLPAHTPAHTPEWCGAASAEAAEPRRAGPHLCIPAPGLTKTPILEKVPRKMAAKTPSSEESGLPKLPVPPLQQTLATYLQCMRHLVSEEQFRKSQAIVQQFGAPGGLGETLQQKLLERQEKTANWVSEYWLNDMYLNNRLALPVNSSPAVIFARQHFPGTDDQLRFAASLISGVLSYKALLDSHSIPTDCAKGQLSGQPLCMKQYYGLFSSYRLPGHTQDTLVAQNSSIMPEPEHVIVACCNQFFVLDVVINFRRLSEGDLFTQLRKIVKMASNEDERLPPIGLLTSDGRSEWAEARTVLVKDSTNRDSLDMIERCICLVCLDAPGGVELSDTHRALQLLHGGGYSKNGANRWYDKSLQFVVGRDGTCGVVCEHSPFDGIVLVQCTEHLLKHVTQSSRKLIRADSVSELPAPRRLRWKCSPEIQGHLASSAEKLQRIVKNLDFIVYKFDNYGKTFIKKQKCSPDAFIQVALQLAFYRLHRRLVPTYESASIRRFQEGRVDNIRSATPEALAFVRAVTDHKAAVPASEKLLLLKDAIRAQTAYTVMAITGMAIDNHLLALRELARAMCKELPEMFMDETYLMSNRFVLSTSQVPTTTEMFCCYGPVVPNGYGACYNPQPETILFCISSFHSCKETSSSKFAKAVEESLIDMRDLCSLLPPTESKPLATKEKATRPSQGHQP
modifications: PEGylated with MS(PEG)12
notes: recombinant ChAT PEGylated using MS (PEG) 12 reagent
On to B1, for which the “disease activity index (DAI) vs vehicle” value in series [2] (1 mg/kg i.p. twice daily from day 7, from day 9 (FIG. 4C)) was “significant reduction”. In series [2] (1 mg/kg i.p. twice daily from day 7 to day 14), the severity of colitis entry was “significantly reduces”. Besides, in series [2] (1 mg/kg i.p. twice daily from day 7 to day 14 (FIG. 4B)), the “weight loss vs vehicle” value is given as “significant reduction”. The “histological damage (inflammation severity, crypt damage, extent of inflammation)” value in series [2] is on record as “attenuates”. The colon length result in series [2] (day 14 (FIG. 4D)) was “significantly improves”. For the same molecule, the “circulating IL-6 vs vehicle” value in series [2] (serum, day 14 (FIG. 5A)) is recorded as “significantly reduced”. Also, the “circulating TNF vs vehicle” value in series [2] (serum, day 14 (FIG. 5B)) is recorded as “significantly reduced”. Also, the “circulating MCP-1 vs vehicle” value in series [2] (serum, day 14 (FIG. 5C)) is reported as “significantly reduced”. For the same molecule, the entries for the “serum TNF vs vehicle” value with TNF and with TNF (listed as PEG-ChAT antibody) were “significantly attenuates” and “significantly ameliorated”, respectively. In the series on TNF, the “spleen TNF vs vehicle” value was “decrease”.

B2: rChAT: recombinant human ChAT residue 119-748 with N-histidine tag, expressed in E. coli (protein, UniProt P28329 1-748, looked up)
Choline O-acetyltransferase: B1 Choline O-acetyltransferase
As to B2, in the series on hypertensive animals, the blood pressure result is on record as “normalizes”. The Vmax in series [3] is 0.05 Δ CoA (nmol/min). The “detected activity after thermal denaturing, in comparison to native preparation” value in series [1] (70° C. for 30 minutes (FIG. 7F), P<0.01) was “significantly reduced”. Moreover, the “enzymatic activity compared to a commercially available ChAT” value in series [1] (FIG. 7B, P<0.01) is “significant increase”. For the same molecule, the “histological damage (inflammation severity, crypt damage, extent of inflammation)” value in series [2] is “reduced”.
